Four molecules from patent US20250171562A1 can be followed below.

Test [1] addresses IgE on basophils of allergic donors (human) (UniProt P01854). Kind of test: IgE surface stain on donor basophils, flow cytometry.
Test [2] shares this target. Kind of test: cell-based or functional assay.
For test [3] the target is unchanged. Kind of test: IgE surface stain on donor basophils after 1 µM sdAb, flow cytometry. (In general: A flow cytometer gives signals particle by particle.)
For test [4], the target named is mixture of three Der p 2 specific recombinant human IgE clones H10, H12, P4E (human) (UniProt P01854). Kind of test: RBL-SX38 IgE displacement, FACS.
Chain of mixture of three Der p 2 specific recombinant human IgE clones H10, H12, P4E (human) (P01854 other isoform, or with tags, fused parts or gaps): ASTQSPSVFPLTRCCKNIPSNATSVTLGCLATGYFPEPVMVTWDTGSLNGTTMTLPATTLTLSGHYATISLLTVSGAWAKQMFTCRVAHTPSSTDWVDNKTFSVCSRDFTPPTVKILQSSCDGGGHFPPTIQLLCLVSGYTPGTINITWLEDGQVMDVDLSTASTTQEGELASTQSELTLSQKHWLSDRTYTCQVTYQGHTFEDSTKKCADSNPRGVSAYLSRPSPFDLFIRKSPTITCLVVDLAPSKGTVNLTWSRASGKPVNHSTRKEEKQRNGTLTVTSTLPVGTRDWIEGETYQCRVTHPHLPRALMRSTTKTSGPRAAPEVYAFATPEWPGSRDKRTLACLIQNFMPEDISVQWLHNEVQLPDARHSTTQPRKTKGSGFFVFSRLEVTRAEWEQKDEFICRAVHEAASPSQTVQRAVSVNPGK

Chain of IgE on basophils of allergic donors (human) (P01854 1-428): as the sequence (P01854 other isoform, or with tags, fused parts or gaps) above, with K428L counted along it

B1: A2+B2 (protein)
VHH 1: EVQLLESGGGLVQPGGSLRLSCAASGFRFGNYDMAWVRQAPGKRYEWVSSIDTGGDITHYADSVKGRFTISRDNAKNTLYLQMNSLRPEDTAEYWCATDEEYALGPNEFDYYGQGTLVTVS
VHH 2: QVQLVESGGGLVQAGGSLRLSCAVFGSTFSNNVADWYRQAPGKQRELVARISASGATREYGDSVKGRFTISRDDAKNTMYLQMNNLKPEDTAVYRCHKIEWEDLSRKDYWGQGTQVTVS
On to B1, for which, in test [1], the displacement effect on IgE surface expression stood at 100%.

B2: sdAb A2 (VHH)
VHH: EVQLLESGGGLVQPGGSLRLSCAASGFRFGNYDMAWVRQAPGKRYEWVSSIDTGGDITHYADSVKGRFTISRDNAKNTLYLQMNSLRPEDTAEYWCATDEEYALGPNEFDYYGQGTLVTVS
Molecule B2 came in with a displacement effect on IgE surface expression in test [1] of 70%.

B3: A2+B3 (protein)
VHH 1: EVQLLESGGGLVQPGGSLRLSCAASGFRFGNYDMAWVRQAPGKRYEWVSSIDTGGDITHYADSVKGRFTISRDNAKNTLYLQMNSLRPEDTAEYWCATDEEYALGPNEFDYYGQGTLVTVS
VHH 2: DVQLQESGGGLVQAGGSLRLSCAASGFIFRLAGMSWVRQAPGKGFEWVSGITMDGSTTNYADSVKGRFTISRDNSKNRLYLQMNSLKPEDTAVYYCARGAKGGYNDPRGQGTQVTVS
In test [1], B3 registered a displacement effect on IgE surface expression of 70%.

B4: sdAb A1 (VHH)
VHH: EVQLLESGGGLVQPGGSLRLSCAASGFTFGNYDMAWVRQAPGKRPEWVSSIDTGGDITHYADSVKGRFTISRDNAKNTLYLQMNSLRPEDTAVYWCATDEEYALGPNEFDYYGQGTLVTVSS
Consider B4, for which the fold decrease in rDerp2-induced activation of basophils of a HDM allergic donor (% CD63 pos basophils) in test [2] is 10 fold. Further, in test [3], the displacement effect measured by IgE expression is 16%. Also, the Max effect/effect 1 µM in test [4] turned out to be 40%.
